Test results as given in article PMC3732869.

Molecular target: PTH receptors on UMR 106 cells (rat (endogenous in UMR 106)) (UniProt P25961)
Sequence of UniProt P25961 (P25961 27-591): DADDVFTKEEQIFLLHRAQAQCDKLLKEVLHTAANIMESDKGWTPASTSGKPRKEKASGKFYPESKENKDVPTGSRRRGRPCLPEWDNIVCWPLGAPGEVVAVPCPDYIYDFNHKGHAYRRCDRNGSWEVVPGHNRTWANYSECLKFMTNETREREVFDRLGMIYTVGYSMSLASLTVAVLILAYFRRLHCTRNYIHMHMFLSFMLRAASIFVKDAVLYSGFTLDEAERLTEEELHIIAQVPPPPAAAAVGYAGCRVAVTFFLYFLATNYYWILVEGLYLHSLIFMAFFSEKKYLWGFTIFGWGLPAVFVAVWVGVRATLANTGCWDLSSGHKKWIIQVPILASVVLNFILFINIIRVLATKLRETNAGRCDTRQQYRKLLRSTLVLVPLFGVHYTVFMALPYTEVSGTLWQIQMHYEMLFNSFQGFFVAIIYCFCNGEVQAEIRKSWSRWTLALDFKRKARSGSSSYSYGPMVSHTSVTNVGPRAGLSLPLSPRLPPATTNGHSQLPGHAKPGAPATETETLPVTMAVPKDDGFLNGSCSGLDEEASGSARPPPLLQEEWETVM

recombinant human parathyroid hormone (rhPTH 1-34) (peptide)
potency in the cAMP bioassay on UMR 106 cells, against the standard: 99.7%
